{
  "source": "patent US20140100120",
  "about": "“METHODS OF X-APTAMER GENERATION AND COMPOSITIONS […]” (AM Biotechnologies, LLC, published 2014)",
  "data": [
    {"biological_target": "CD44 hyaluronic acid binding domain (CD44-HABD) (UniProt P16070 P16070:20-178)", "sequence (P16070 20-178, one chain of several)": "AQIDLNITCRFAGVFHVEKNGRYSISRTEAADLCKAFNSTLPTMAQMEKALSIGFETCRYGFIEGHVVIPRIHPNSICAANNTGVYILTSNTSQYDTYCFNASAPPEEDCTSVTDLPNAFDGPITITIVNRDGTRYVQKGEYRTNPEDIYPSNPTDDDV", "assay": "filter; 20 mM Tris pH 8.0, 150 mM NaCl, RT", "conditions": "label: biotin; hairpin (predicted)", "description": "(§1) The equilibrium binding constants of selected XAs for CD44-HABD were determined by a filter binding assay. The biotinylated XAs (1 nM) were incubated with varying concentrations of CD44-HABD in 50 μL of 20 mM Tris, pH 8.0, 150 mM NaCl for 40 min at room temperature and then transferred to a 96-well dot-blot apparatus and filtered under vacuum onto nitrocellulose membranes, which retain the CD44-HABD along with any bound XAs. The amount of biotinylated XA retained at each spot was determined by chemiluminescent detection using the Chemiluminescent Nucleic Acid Detection Module (Thermo Scientific) following the manufacturer's instructions. The chemiluminescent signals were collected on a Chemimager (Alpha Innotech). Image analysis and quantification of spot intensities were performed using ImageJ (version 1.42q). Binding analysis was based on the spot intensities on the nitrocellulose membranes with subtraction of background spot intensity due to the buffer effect from all the data points. Saturation binding curves were generated by using GraphPad Prism with curve fits assuming a single binding site. The NH₂ XA column lists KDs for XAs where X=amino-dU. The ADDA XA column lists KDs for XAs where X=ADDA-dU.\n(§2) The equilibrium binding constants of the small constructs were determined by the filter binding assay. The derived equilibrium binding constants of the above small XA constructs are shown below in Table 4.", "units": {"Kd": "nM"}, "values": [
      {"binder": "CTGTTAGGGAACCAAGACGA (ssDNA, X=ADDA-dU; phosphodiester [n positions 2,4 = modified dU])", "note": "[Motif 2 phospho ADDA]", "Kd": 2},
      {"binder": "CTGTTAGGGAACCAAGACGA (ssDNA, X=amino-dU; phosphodiester [n positions 2,4 = modified dU])", "note": "[Motif 2 phospho NH2]", "Kd": 43.1},
      {"binder": "CTGTTAGGGAACCAAGACGA (ssDNA, fully monothioate PS; X=amino-dU [n positions 2,4 = modified dU])", "note": "[Motif 2 thio NH2]", "Kd": 48},
      {"binder": "CTGTTAGGGAACCAAGACGA (ssDNA, fully monothioate PS; X=ADDA-dU [n positions 2,4 = modified dU])", "note": "[Motif 2 thio ADDA]", "Kd": 15.5}
    ]},
    {"biological_target": "CD44 hyaluronic acid binding domain (CD44-HABD) (UniProt P16070 P16070:20-178)", "assay": "filter; 20 mM Tris pH 8.0, 150 mM NaCl, RT", "conditions": "label: biotin; stem-loop (predicted)", "description": "as §1, §2", "units": {"Kd": "nM"}, "values": [
      {"binder": "GATCTGCAATGTAACCATAGACA (ssDNA, X=ADDA-dU; phosphodiester [n positions 10 = modified dU])", "note": "[Motif 4 phospho ADDA]", "Kd": 2.1},
      {"binder": "AGATACAGTAAACGTCCATAGACAC (ssDNA, fully monothioate PS; X=amino-dU [n positions 4,15 = modified dU])", "note": "[Motif 5 thio NH2]", "Kd": 18},
      {"binder": "GCCTGCAAGACGTCCATAGACAC (ssDNA, X=ADDA-dU; phosphodiester [n positions 13 = modified dU])", "note": "[Motif 3 phospho ADDA]", "Kd": 19.5},
      {"binder": "GCCTGCAAGACGTCCATAGACAC (ssDNA, X=amino-dU; phosphodiester [n positions 13 = modified dU])", "note": "[Motif 3 phospho NH2]", "Kd": 27.6},
      {"binder": "GATCTGCAATGTAACCATAGACA (ssDNA, fully monothioate PS; X=amino-dU [n positions 10 = modified dU])", "note": "[Motif 4 thio NH2]", "Kd": 35.4},
      {"binder": "GCCTGCAAGACGTCCATAGACAC (ssDNA, fully monothioate PS; X=ADDA-dU [n positions 13 = modified dU])", "note": "[Motif 3 thio ADDA]", "Kd": 64.8},
      {"binder": "AGATACAGTAAACGTCCATAGACAC (ssDNA, X=ADDA-dU; phosphodiester [n positions 4,15 = modified dU])", "note": "[Motif 5 phospho ADDA]", "Kd": 3.9},
      {"binder": "GCCTGCAAGACGTCCATAGACAC (ssDNA, fully monothioate PS; X=amino-dU [n positions 13 = modified dU])", "note": "[Motif 3 thio NH2]", "Kd": 81.2},
      {"binder": "GATCTGCAATGTAACCATAGACA (ssDNA, X=amino-dU; phosphodiester [n positions 10 = modified dU])", "note": "[Motif 4 phospho NH2]", "Kd": 6.8},
      {"binder": "AGATACAGTAAACGTCCATAGACAC (ssDNA, fully monothioate PS; X=ADDA-dU [n positions 4,15 = modified dU])", "note": "[Motif 5 thio ADDA]", "Kd": 10.1},
      {"binder": "GATCTGCAATGTAACCATAGACA (ssDNA, fully monothioate PS; X=ADDA-dU [n positions 10 = modified dU])", "note": "[Motif 4 thio ADDA]", "Kd": 13.6},
      {"binder": "AGATACAGTAAACGTCCATAGACAC (ssDNA, X=amino-dU; phosphodiester [n positions 4,15 = modified dU])", "note": "[Motif 5 phospho NH2]", "Kd": 13.8}
    ]}
  ]
}
